Test results: patent US20190309093A1 (Y BIOLOGICS, published 2019)

What was measured:
hCD3εγ chains = biological target: T1, hCD3εγ chains; assay: ELISA on hCD3εγ chains, fit value of a flat curve, unit taken from the x axis Antibody [nM]
T1 construct: copies: 1 + 1
T1 epsilon: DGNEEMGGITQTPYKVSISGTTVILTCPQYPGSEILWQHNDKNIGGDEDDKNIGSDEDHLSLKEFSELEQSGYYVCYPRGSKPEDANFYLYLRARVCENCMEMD
T1 gamma: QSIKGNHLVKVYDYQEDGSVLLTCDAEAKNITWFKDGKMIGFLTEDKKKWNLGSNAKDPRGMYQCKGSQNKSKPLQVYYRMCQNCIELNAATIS

[1] = biological target: T2, CD3 on Jurkat luciferase reporter cells (UniProt P07766 23-207); assay: flow cytometry of Jurkat_NFAT_Luc2P cells, FITC-A; fold over hIgG
T2 construct: whole, on cells; also called CD3 positive Jurkat cell line with NFAT luciferase reporter

B1: ACE-05 (bispecific antibody)
heavy 1: not shown
heavy 2: not shown
light: QLVLTQPPSVSGAPGQRVTISCTGSSSNIGAGYDVHWYQQLPGAAPKLLIYGDINRPSGVPDRFSGSKSGISASLAITGLQAEDEADYYCQSYDSSLSGGVFGGGTKLTVLRTVAAPSVFIFPPSDEQLKSGTASVVCLLNNFYPREAKVQWKVDNALQSGNSQESVTEQDSKDSTYSLSSTLTLSKADYEKHKVYACEVTHQGLSSPVTKSFNRGEC
notes: The Fab regions are bivalent for PD-L1 and the Fv is monovalent for CD3; also called ALiCE molecule ACE-05
- Kd (hCD3εγ chains): 0.035 nM

B2: UCHT1 (antibody, V domains shown)
VH: EVQLQQSGPELVKPGPSMKISCKASGYSFTGYTMNWVKQSHGKNLEWMGLINPYKGVSTYNQKFKDKATLTVDKSSSTAYMELLSLTSEDSAVYYCARSGYYGDSDWYFDVWGQGTTLTVFS
VL: DIQMTQTTSSLSASLGDRVTISCRASQDIRNYLNWYQQKPDGTVKLLIYYTSRLHSGVPSKFSGSGSGTDYSLTISNLEQEDIATYFCQQGNTLPWTFAGGTKLEIKR
notes: Bought antibody
- Fold [1]: 35
